Results published in article PMC10746245.

Target: MoKat2 tagged with FLAG or GFP (MoKat2-FLAG and MoKat2-GFP) (Magnaporthe oryzae)
Test: native gel or EMSA

MoKat2 tagged with FLAG or GFP (MoKat2-FLAG and MoKat2-GFP) (enzyme)
stoichiometry N: 2
